Measurements from paper PMC12024694, “RNA Binding to CCRRM of PABPN1 Induces Conformation Change”.

Tests used:
[1] = target: T1, PABPN1 CCRRM fragment (coiled coil + RRM) (UniProt Q86U42 114-254); assay: BLI; kon 3.589e-5 (so in the source), koff 1.34e-3 s-1; room temperature; EMSA and SHAPE: 10 mM Tris-HCl pH 8.0, 25 mM KCl, 10 mM NaCl, 1 mM MgCl2, 10% glycerol, 0.5 mM DTT, 25 C, 20 min (1M7 step at 35 C); BLI: room temperature, 0.5; conditions: protein: recombinant; tags: Trx and His (Ni-NTA) fusion, pET-MG vector; label: 5' biotin
T1 sequence: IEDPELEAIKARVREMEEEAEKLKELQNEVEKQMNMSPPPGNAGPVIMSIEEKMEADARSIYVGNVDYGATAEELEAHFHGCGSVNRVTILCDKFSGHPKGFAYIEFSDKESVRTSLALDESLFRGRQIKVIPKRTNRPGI

[2] = target: T1, PABPN1 CCRRM fragment (coiled coil + …); assay: SHAPE footprinting (1M7); A-rich protected, CU-rich partly protected; CA-rich and GU-rich stable, AU-rich more reactive; text elsewhere calls GU-rich moderate affinity; EMSA and SHAPE: 10 mM Tris-HCl pH 8.0, 25 mM KCl, 10 mM NaCl, 1 mM MgCl2, 10% glycerol, 0.5 mM DTT, 25 C, 20 min (1M7 step at 35 C); BLI: room temperature, 0.5; conditions: protein: recombinant; tags: Trx and His (Ni-NTA) fusion, pET-MG vector
[3] = target: T1, PABPN1 CCRRM fragment (coiled coil + …); assay: BLI; kon 4.1e-5 (so in the source), koff 1.71e-3 s-1; text ranks A12 lowest affinity, inconsistent with values; EMSA and SHAPE: 10 mM Tris-HCl pH 8.0, 25 mM KCl, 10 mM NaCl, 1 mM MgCl2, 10% glycerol, 0.5 mM DTT, 25 C, 20 min (1M7 step at 35 C); BLI: room temperature, 0.5; conditions: protein: recombinant; tags: Trx and His (Ni-NTA) fusion, pET-MG vector; label: 5' biotin
[4] = target: T1, PABPN1 CCRRM fragment (coiled coil + …); assay: EMSA; 40 uM RNA; protein:RNA ratio 0 to 10; EMSA and SHAPE: 10 mM Tris-HCl pH 8.0, 25 mM KCl, 10 mM NaCl, 1 mM MgCl2, 10% glycerol, 0.5 mM DTT, 25 C, 20 min (1M7 step at 35 C); BLI: room temperature, 0.5; conditions: protein: recombinant; tags: Trx and His (Ni-NTA) fusion, pET-MG vector
[5] = target: T1, PABPN1 CCRRM fragment (coiled coil + …); assay: BLI; kon 4.24e-5 (so in the source), koff 2.031e-3 s-1; text ranks A18 intermediate, inconsistent with values; EMSA and SHAPE: 10 mM Tris-HCl pH 8.0, 25 mM KCl, 10 mM NaCl, 1 mM MgCl2, 10% glycerol, 0.5 mM DTT, 25 C, 20 min (1M7 step at 35 C); BLI: room temperature, 0.5; conditions: protein: recombinant; tags: Trx and His (Ni-NTA) fusion, pET-MG vector; label: 5' biotin
[6] = target: T1, PABPN1 CCRRM fragment (coiled coil + …); assay: EMSA; 50 uM RNA; protein:RNA ratio 0 to 5; EMSA and SHAPE: 10 mM Tris-HCl pH 8.0, 25 mM KCl, 10 mM NaCl, 1 mM MgCl2, 10% glycerol, 0.5 mM DTT, 25 C, 20 min (1M7 step at 35 C); BLI: room temperature, 0.5; conditions: protein: recombinant; tags: Trx and His (Ni-NTA) fusion, pET-MG vector

AAAAAA (ssRNA) [A6]
Kd [1]: 3.38 nM

B1: RE_A-rich RNA (structured_RNA)
RNA: CCUUCGGGCCAAAUUUAUUUAUUUAUUUAUUUAGCUGACGAUAAAAAAAAAAAAAAAAAACCACACACACAGGAAUCGACUCUGUUUGUUUGUGUUUGUUUGUACUGAAUUGGCACUUUUCCCCUUUUCCCUUUCUGGACUGGCAUCGAUCCGGUUCGCCGGAUCCAAAUCGGGCUUCGGUCCGGUUC
binding result [2]: binds

AAAAAAAAAAAA (ssRNA) [A12]
Kd [3]: 4.17 nM

B2: U-rich RNA (ssRNA)
RNA: UAAUACGACUCACUAUAGGGUGGUCAGUCGAGUGGUUUUUUUUUUUUUUUUUUGGGCGGCAUGGUCCCAGCCUCCU
binding result [4]: no binding

AAAAAAAAAAAAAAAAAA (ssRNA) [A18]
Kd [5]: 4.79 nM

B3: A-rich RNA (ssRNA)
RNA: UAAUACGACUCACUAUAGGGUGGUCAGUCGAGUGGAAAAAAAAAAAAAAAAAAGGGCGGCAUGGUCCCAGCCUCCU
binding result [6]: binds
